{
  "source": "patent US20250346890A1",
  "about": "“LEUKEMIA TREATMENT” (Deutsches Krebsforschungszentrum, priority 2019, published 2025)",
  "key": {"[1]": {"target": "T1, ALK3RD (Homo sapiens, UniProt P36894, Q233D)", "T1 construct": "expressed in transfected cells; host or cells: HEPG2", "T1 sequence (P36894 24-532 Q233D)": "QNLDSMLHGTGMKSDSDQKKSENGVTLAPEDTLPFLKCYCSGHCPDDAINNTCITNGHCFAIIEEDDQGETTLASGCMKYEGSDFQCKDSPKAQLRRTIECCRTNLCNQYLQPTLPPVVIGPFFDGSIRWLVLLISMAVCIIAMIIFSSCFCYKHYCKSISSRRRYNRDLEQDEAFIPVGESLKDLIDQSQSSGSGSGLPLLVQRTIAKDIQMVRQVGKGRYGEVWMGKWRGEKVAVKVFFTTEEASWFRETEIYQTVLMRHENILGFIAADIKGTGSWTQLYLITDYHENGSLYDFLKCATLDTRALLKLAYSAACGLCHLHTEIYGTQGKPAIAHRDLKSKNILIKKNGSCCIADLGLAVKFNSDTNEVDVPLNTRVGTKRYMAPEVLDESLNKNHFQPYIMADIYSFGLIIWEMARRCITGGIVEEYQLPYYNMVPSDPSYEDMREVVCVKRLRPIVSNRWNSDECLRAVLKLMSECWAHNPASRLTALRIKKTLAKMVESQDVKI", "experiment": "BRE reporter assay in HEPG2 cells with constitutively active ALK3", "assay_type": "cell-based", "details": "RSPO treatment", "description": "Alkaline phosphatase (AP) fusions with RSPOs (human RSPO1^ΔC-AP-pCDNA3, RSPO2^ΔC-AP-pCDNA3, RSPO2^ΔC-AP-pCS2+, RSPO3^ΔC-AP-pCDNA3, murine RSPO4^ΔC-pCDNA3) were generated by replacing the C-terminal domain (ΔC) by AP and used to produce conditioned media. Human RSPO2 wild-type (RSPO2), Furin1 and Furin2 deletion mutants (RSPO2^ΔFU), and TSP1 domain deletion mutant (RSPO2^ΔTSP) are ORFs lacking the C-terminal domain, C-terminally tagged with a Flag-tag and subcloned into pCS2+. R1-TSP^R2, R1-TSP^R2-AP and R1-TSP^R2-Flag plasmids were generated by fusion PCR and cloned in pCS2+. Conditioned media from all RSPO constructs were adjusted to equal concentration by western blot and AP activity measurement, and further validated by WNT reporter assay using HEK293T cells. The extracellular domain of ALK3 (ALK3^ECD) was subcloned in AP-pCS2+ for generating conditioned medium and used in in vitro binding assays. Constitutively active forms of ALK2,3,6 (ALK^QD) were generated by Gln-Asp mutations as described in Fujii et al. (1999), Mol Biol Cell 10, 3801-3813, doi: 10.1091/mbc.10.11.3801. HA-tagged ALK3 was a gift from Dr. D. Koinuma (Goto et al. (2007), J Biol Chem 282, 20603-20611, doi: 10.1074/jbc.M702100200). For Xenopus mRNA microinjection, Xenopus laevis BMP4-pCS2+, myc-tagged RSPO2^ΔC-myc-pCS2+, RSPO2^ΔFU-myc-pCS2+ and RSPO2^ΔTSP-myc-pCS2+ plasmids, DNALK3-pCS2+, membrane-RFP, EYFP-tagged human ALK3-pCS2+ were used for in vitro transcription. Human ZNRF3 and ZNRF3^ΔRING constructs were gifts from Dr. F. Cong (Novartis; Hao et al. (2012), Nature 485, 195-200, doi: 10.1038/nature11019), and ORFs were subcloned in flag-pCS2+ for in vitro transcription.\nBRE luciferase assays were executed using 300,000 ml^−1 of HEPG2 cells in 24-well plates. PGL3-BRE-Luciferase (500 ng ml^−1) and pRL-TK-Renilla plasmids (50 ng ml^−1) were transfected using Lipofectamine 3000. […] Luciferase activity was measured with the Dual luciferase reporter assay system (Promega E1960). Firefly luminescence (BRE) was normalized to Renilla. […]"}, "[2]": {"target": "T2, extracellular domain of ALK3 (Homo sapiens, UniProt P36894)", "T2 construct": "made in house; host or cells: HEK293T (conditioned medium)", "T2 sequence (P36894 24-152 limits assumed)": "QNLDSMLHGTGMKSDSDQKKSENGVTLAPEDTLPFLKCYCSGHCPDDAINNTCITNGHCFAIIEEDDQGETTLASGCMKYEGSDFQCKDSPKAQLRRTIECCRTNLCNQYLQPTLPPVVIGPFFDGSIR", "experiment": "In vitro binding assay RSPO / ALK3^ECD (Scatchard plot)", "description": "High binding 96-well plates (Greiner M5811) were coated with 2 μg ml^−1 of recombinant human RSPO1 (Peprotech 120-38), RSPO2 (Peprotech 120-43), RSPO3 (Peprotech 120-44) or FGF8b (Peprotech 100-25) recombinant protein reconstituted in bicarbonate coating buffer (50 mM NaHCO3, pH 9.6) overnight at 4° C. Coated wells were washed three times with TBST (TBS, 0.1% Tween-20) and blocked with 5% BSA in TBST for 1 hour at room temperature. 1.5 U ml^−1 of ALK3^ECD-AP or control conditioned medium was incubated overnight at 4° C. Wells were washed six times with TBST and bound AP activity was measured by the chemiluminescent SEAP Reporter Gene Assay kit (Abcam ab 133077). For ZNRF3-ALK3 binding assay, plates were coated with recombinant human ZNRF3 Fc Chimera protein (R&D systems 7994-RF). ALK3^ECD-AP was preincubated with RSPO2-Flag, RSPO2^ΔTSP-Flag conditioned medium or recombinant RSPO protein prior to treatment. Control conditioned medium and vesicles were used as control. […] Statistical analyses show unpaired t-tests."}},
  "data": [
    {"molecule": "RSPO2: human R-spondin 2 protein (SEQ ID NO:1); conditioned medium or recombinant (Peprotech 120-43) (protein, listed as Homo sapiens) MQFRLFSFALIILNCMDYSHCQGNRWRRSKRASYVSNPICKGCLSCSKDNGCSRCQQKLFFFLRREGMRQYGECLHSCPSGYYGHRAPDMNRCARCRIENCDSCFSKDFCTKCKVGFYLHRGRCFDECPDGFAPLEETMECVEGCEVGHWSEWGTCSRNNRTCGFKWGLETRTRQIVKKPVKDTILCPTIAESRRCKMTMRHCPGGKRTPKAKEKRNKKKKRKLIERAQEQHSVFLATDRANQ", "values": [
      {"measurement": "BMP signaling induced by constitutively active ALK3", "setting": "[1]", "value": "specifically inhibited"},
      {"measurement": "Kd", "setting": "[2]", "value": "~4.8", "unit": "nM"}
    ]}
  ]
}
